According to patent US20200291098A1 (PANASONIC INTELLECTUAL PROPERTY MANAGEMENT, published 2020):

Tests used:
[1] = target: recombinant nucleoprotein (NP) protein derived from influenza virus H1N1 to which a Flag tag was fus (influenza virus H1N1)
[2] = target: intranuclear protein derived from type-A influenza virus subtype H1N1 (A/Hokkaido/6-5/2014) (type-A influenza virus H1N1 …)

Sequence of recombinant nucleoprotein (NP) protein derived from influenza virus H1N1 to which a Flag tag was fus (influenza virus H1N1) (P03466 whole entry): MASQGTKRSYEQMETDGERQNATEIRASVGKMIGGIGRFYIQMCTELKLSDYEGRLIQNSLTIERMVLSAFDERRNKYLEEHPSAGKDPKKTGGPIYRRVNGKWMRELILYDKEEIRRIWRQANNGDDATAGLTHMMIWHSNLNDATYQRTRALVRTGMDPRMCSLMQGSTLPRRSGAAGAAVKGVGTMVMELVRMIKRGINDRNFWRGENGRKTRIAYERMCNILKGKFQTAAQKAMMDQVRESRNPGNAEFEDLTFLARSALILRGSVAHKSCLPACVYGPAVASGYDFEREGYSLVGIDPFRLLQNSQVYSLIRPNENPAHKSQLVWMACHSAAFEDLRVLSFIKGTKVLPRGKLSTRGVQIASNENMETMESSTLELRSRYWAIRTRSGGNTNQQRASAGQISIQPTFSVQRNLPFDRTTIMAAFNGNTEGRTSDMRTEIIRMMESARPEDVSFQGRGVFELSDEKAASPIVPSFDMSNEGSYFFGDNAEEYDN

B1: VHH antibody consisting of the amino acid sequence represented by SEQ ID NO: 8 (VHH)
VHH: EVQLVESGGGLVQPGGSLSLSCAASGFTFSNYYMGWFRQAPGKERQSLATVNSGGTGEAYADSIRGRFTISRDNAKNTVTLQMSSLQPEDTAVYYCARVDGRVLSTIVVSYDYWGQGTQVTVSS
B1 was tested, and the Kd [1] was 0.201 nM and the “EC50 (read off the curve)” value [2] was ~8 ng/mL.
